One assay has as its target T1, DR5 (UniProt O14763 56-182, limits assumed).
T1 construct: also called TRAIL-R2
In words: ELISA.

The target of assay [1] is T2, Recombinant human rTRAIL receptor 1 (DR4), extracellular part, amino acids 25-239 (human, UniProt O00220 25-239).
T2 construct: also called rDR4; recombinant DR4
T2 sequence: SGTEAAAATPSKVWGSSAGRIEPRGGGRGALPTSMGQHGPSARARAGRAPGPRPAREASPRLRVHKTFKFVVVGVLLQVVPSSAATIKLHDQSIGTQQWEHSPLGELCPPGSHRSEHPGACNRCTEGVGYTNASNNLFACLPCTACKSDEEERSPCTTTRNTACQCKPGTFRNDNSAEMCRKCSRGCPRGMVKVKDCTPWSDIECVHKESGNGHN
In words: ELISA, DR4 coated at 50 ng/well, IgG1 detected with anti-human Fc-HRP. Here is the method: To testing binding of recombinant antibodies to DR4 in vitro, DR4 protein was coated onto half-area ELISA plate at 50 ng/well. After blocking with MPBS, different dilutions of antibodies were incubated with coated wells. For detection of binding antibodies, secondary antibody goat anti-Flag tag-HRP and goat anti-human Fc-HRP (both used at 1:1000) were used to detect Fab or IgG. The ELISA signal was developed with substrate ABTS, and read under wavelength 405 nm. […] The mixture was then added to wells for ELISA.
(In general: In an ELISA, binding on a coated surface is turned into a signal by an enzyme label.)

In general, EC50 refers to the concentration that produces a half-maximal response.

B1: m922 IgG1 (antibody, V domains shown)
VH: QVQLQQSGPGLVKPSQTLSLTCAISGDSVSSNSAAWNWIRQSPSRGLEWLGRTYYRSKWYNDYAVSVKSRITINPDTSKNQFSLQLNSVTPEDTAVYYCARETVAVDAFDIWGQGTMVTVSS
VL: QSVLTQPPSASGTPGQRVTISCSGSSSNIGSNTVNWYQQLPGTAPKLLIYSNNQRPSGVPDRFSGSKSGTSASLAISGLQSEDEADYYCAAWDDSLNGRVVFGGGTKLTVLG
notes: also called IgG m922; DR4 m922 IgG
As to B1, the binding result with DR5 is “no binding (tested: 1000 nM)”. Moreover, the EC50 in assay [1] is approximately 10 nM.

B2: m921 IgG1 (antibody, V domains shown)
VH: QVQLQQSGPGLVKPSQTLSLTCAISGDSVSSNSAAWNWIRQSPSRGLEWLGRTYYRSKWYNDYAVSVKGRITINPDTSKNQFSLQLNSVTPEDTAVYYCARDLGVAAADSYYYYGMDVWGQGTTVTVSS
VL: QPVLTQPPSASATPGQRVTISCSGSSSNIGSNTLDWFQQLPGTAPKLLIFDTNRRPSGVPDRFSGSKSGTSASLAISGLQAEDEAVYFCATWDNSLNGAVFGGGTKLSVPR
notes: also called IgG m921; DR4 IgG m921
Consider B2, for which, in the assay with DR5, the binding result was “no binding (tested: 1000 nM)”. The EC50 in assay [1] is approximately 10 nM.

The values are drawn from US20130156781A1 (GOVT OF THE UNITED STATES OF AMERICA H H N I H OFFICE OF …, published 2013).
